In publication PMC10834429, “HRDE-2 drives small RNA specificity for the nuclear Argonaute protein HRDE-1” (Nature Communications, 2024):

Columns and labels:
GFP::3xFLAG::HRDE-1 = target: T1, GFP::3xFLAG::HRDE-1 (C. elegans, UniProt Q09249 1-1032); assay: co-IP; lysate of adult animals; anti-FLAG beads precipitate GFP::3xFLAG::HRDE-1, HRDE-2::2xTy1::GFP detected with anti-Ty1; wild-type, mut-2 mutant and hrde-1(HK-AA) backgrounds; band intensities by ImageJ normalized to HRDE-1 immunoprecipitated and to wild-type; settings: partners not purified
T1 construct: HRDE-1/WAGO-9, germline nuclear Argonaute, C. elegans, tagged in the worm strain; Tag ends are read from the strain notation GFP::3xFLAG::HRDE-1; also called HRDE-1/WAGO-9; wild-type HRDE-1; source: C. elegans strain hrde-1(tor125[GFP::3xFLAG::hrde-1]), adult animals, in lysate; not shown: GFP, N-terminal, kept; 3xFLAG, N-terminal, kept
T1 sequence (looked up): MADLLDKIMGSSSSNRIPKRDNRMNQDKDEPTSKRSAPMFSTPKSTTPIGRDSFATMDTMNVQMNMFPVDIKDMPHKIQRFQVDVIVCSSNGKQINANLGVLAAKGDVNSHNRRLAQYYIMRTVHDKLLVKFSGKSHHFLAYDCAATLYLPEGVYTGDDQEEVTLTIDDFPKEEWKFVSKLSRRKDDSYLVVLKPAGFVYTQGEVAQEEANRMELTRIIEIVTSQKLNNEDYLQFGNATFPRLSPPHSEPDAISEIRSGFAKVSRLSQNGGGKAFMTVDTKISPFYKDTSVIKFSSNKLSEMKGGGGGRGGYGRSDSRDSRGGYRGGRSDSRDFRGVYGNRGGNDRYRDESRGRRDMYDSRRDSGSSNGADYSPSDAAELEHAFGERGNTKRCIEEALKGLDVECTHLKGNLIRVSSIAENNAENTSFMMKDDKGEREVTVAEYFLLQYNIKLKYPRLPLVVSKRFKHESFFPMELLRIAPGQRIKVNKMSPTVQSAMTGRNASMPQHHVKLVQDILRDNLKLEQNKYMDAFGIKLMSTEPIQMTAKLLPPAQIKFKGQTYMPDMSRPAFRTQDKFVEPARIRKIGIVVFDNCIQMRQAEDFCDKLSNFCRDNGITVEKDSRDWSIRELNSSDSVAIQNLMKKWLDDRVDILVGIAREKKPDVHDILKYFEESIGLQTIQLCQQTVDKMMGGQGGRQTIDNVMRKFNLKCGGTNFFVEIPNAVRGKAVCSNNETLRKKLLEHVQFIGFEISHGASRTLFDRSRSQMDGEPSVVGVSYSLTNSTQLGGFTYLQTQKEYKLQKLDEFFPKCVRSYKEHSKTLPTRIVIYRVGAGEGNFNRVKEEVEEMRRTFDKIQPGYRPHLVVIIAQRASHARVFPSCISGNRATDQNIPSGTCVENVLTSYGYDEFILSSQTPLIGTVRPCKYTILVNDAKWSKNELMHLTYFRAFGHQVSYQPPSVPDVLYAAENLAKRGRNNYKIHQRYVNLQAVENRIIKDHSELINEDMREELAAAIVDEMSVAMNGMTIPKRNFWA

[1] = target: T2, GFP::3xFLAG::HRDE-1(HK-AA) (C. elegans, UniProt Q09249 1-1032, H664A | K668A); assay: as above; settings: partners not purified
T2 construct: Tag ends are read from the strain notation; Repair template is in Supplementary Data 3; source: C. elegans strain hrde-1(cmp309[HK-AA]) made in hrde-1(tor125[GFP::3xFLAG::hrde-1]), adult animals, in lysate; not shown: GFP, N-terminal, kept; 3xFLAG, N-terminal, kept
T2 sequence (looked up): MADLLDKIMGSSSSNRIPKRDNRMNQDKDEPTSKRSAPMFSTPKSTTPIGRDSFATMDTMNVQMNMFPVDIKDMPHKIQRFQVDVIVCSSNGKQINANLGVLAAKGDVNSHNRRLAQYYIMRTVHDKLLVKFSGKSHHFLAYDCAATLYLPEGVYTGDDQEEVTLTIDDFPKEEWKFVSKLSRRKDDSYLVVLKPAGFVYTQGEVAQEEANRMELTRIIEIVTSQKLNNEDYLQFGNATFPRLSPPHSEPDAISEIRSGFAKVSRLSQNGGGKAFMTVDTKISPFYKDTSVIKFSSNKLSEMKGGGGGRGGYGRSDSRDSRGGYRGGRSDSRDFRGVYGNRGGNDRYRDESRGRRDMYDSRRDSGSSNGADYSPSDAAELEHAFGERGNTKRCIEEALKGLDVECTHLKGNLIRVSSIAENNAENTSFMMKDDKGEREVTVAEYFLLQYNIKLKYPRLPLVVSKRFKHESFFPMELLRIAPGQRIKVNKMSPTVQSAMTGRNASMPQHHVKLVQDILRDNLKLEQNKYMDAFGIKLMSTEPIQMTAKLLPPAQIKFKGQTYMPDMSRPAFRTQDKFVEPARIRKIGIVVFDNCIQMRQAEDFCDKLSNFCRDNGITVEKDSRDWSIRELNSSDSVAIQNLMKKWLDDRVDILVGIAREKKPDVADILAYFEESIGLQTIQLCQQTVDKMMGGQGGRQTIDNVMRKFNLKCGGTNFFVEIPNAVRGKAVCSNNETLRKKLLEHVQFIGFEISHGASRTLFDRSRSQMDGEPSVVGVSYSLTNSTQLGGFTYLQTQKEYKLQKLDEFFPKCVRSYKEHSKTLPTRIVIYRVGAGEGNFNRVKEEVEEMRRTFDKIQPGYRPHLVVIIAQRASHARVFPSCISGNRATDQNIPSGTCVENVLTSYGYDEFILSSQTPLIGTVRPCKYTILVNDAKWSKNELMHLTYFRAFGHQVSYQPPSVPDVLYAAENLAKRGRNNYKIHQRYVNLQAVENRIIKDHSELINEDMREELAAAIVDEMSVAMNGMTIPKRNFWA

fold change of co-precipitated HRDE-2 in the mut-2 mutant against wild-type (GFP::3xFLAG::HRDE-1): ~2.18 fold
fold change of co-precipitated HRDE-2 against wild-type HRDE-1 [1]: ~3.3 fold
B1: HRDE-2::2xTy1::GFP (natural protein, C. elegans, UniProt Q22058 1-305, looked up)
chain: MSQNSDTFDSGLQMEVHKMAEADNSSVQQKFDAIRDYIGRKETTIILCEHDDSRKIKLTLNKQRMESSMFLTEMPDGGIQEKTKFHRNGLAVCSYNAFDEVDLPLADSYIFYGLPSNVEAFPRMLHGIEKSAHKENKIVFIDIVVSILEKIQIKVVSFELYNRKCTVPTWVAELVITYCAPIEEQQQRIEEIRRTRASVPVAISDAANGSAEMVPSNTTGSSGSPMSTAPVPAAKKEKVQYESIRQIRPNAQGRYFVPARMINMDIEMSNDEYSPDESENDENEYDYENAARYDDGYDEGHEYCQ
notes: HRDE-2 (HRDE-2/ENRI-3), C. elegans, tagged in the worm strain; Tag ends are read from the strain notation HRDE-2::2xTy1::GFP; also called HRDE-2/ENRI-3; source: C. elegans strain hrde-2/enri-3(tag1660[hrde-2/enri-3::2xTy1::GFP]), adult animals, in lysate; not shown: 2xTy1, C-terminal, kept; GFP, C-terminal, kept
